# Experiments:
# [1] = target: recombinant P. xylostella BJSP-1-GST fusion protein (basic juvenile hormone-suppressible protein 1-like) (P. xylostella); assay: ELISA; plates coated with BJSP-1-GST (8 μg/well, 4°C overnight); increasing concentrations of Cry7Ab4 toxic core added; detected with anti-His antibody
# [2] = target: recombinant His-tagged Cry7Ab4 toxic core (residues 1-637) (Bacillus thuringiensis); assay: ELISA; plates coated with Cry7Ab4 toxic core (8 μg/well, 4°C overnight); increasing concentrations of BJSP-1-GST added; detected with anti-GST antibody
Substance,concentration at which binding was saturated [1] [µg/mL],concentration at which binding was saturated [2] [µg/mL]
recombinant His-tagged Cry7Ab4 toxic core (residues 1-637) (domain or fragment),16,–
recombinant P. xylostella BJSP-1-GST fusion protein (basic juvenile hormone-suppressible protein 1-like) (natural protein),–,64

# Reference: paper PMC9491089
